Experimental data from IntAct's records for PubMed 29263825.

B1: Cohesin subunit SA-2 (Homo sapiens), Q8N3U4 (parent)
chain: MIAAPEIPTDFNLLQESETHFSSDTDFEDIEGKNQKQGKGKTCKKGKKGPAEKGKGGNGGGKPPSGPNRMNGHHQQNGVENMMLFEVVKMGKSAMQSVVDDWIESYKHDRDIALLDLINFFIQCSGCKGVVTAEMFRHMQNSEIIRKMTEEFDEDSGDYPLTMAGPQWKKFKSSFCEFIGVLVRQCQYSIIYDEYMMDTVISLLTGLSDSQVRAFRHTSTLAAMKLMTALVNVALNLSINMDNTQRQYEAERNKMIGKRANERLELLLQKRKELQENQDEIENMMNAIFKGVFVHRYRDAIAEIRAICIEEIGIWMKMYSDAFLNDSYLKYVGWTMHDKQGEVRLKCLTALQGLYYNKELNSKLELFTSRFKDRIVSMTLDKEYDVAVQAIKLLTLVLQSSEEVLTAEDCENVYHLVYSAHRPVAVAAGEFLYKKLFSRRDPEEDGMMKRRGRQGPNANLVKTLVFFFLESELHEHAAYLVDSMWDCATELLKDWECMNSLLLEEPLSGEEALTDRQESALIEIMLCTIRQAAECHPPVGRGTGKRVLTAKEKKTQLDDRTKITELFAVALPQLLAKYSVDAEKVTNLLQLPQYFDLEIYTTGRLEKHLDALLRQIRNIVEKHTDTDVLEACSKTYHALCNEEFTIFNRVDISRSQLIDELADKFNRLLEDFLQEGEEPDEDDAYQVLSTLKRITAFHNAHDLSKWDLFACNYKLLKTGIENGDMPEQIVIHALQCTHYVILWQLAKITESSSTKEDLLRLKKQMRVFCQICQHYLTNVNTTVKEQAFTILCDILMIFSHQIMSGGRDMLEPLVYTPDSSLQSELLSFILDHVFIEQDDDNNSADGQQEDEASKIEALHKRRNLLAAFCKLIVYTVVEMNTAADIFKQYMKYYNDYGDIIKETMSKTRQIDKIQCAKTLILSLQQLFNEMIQENGYNFDRSSSTFSGIKELARRFALTFGLDQLKTREAIAMLHKDGIEFAFKEPNPQGESHPPLNLAFLDILSEFSSKLLRQDKRTVYVYLEKFMTFQMSLRREDVWLPLMSYRNSLLAGGDDDTMSVISGISSRGSTVRSKKSKPSTGKRKVVEGMQLSLTEESSSSDSMWLSREQTLHTPVMMQTPQLTSTIMREPKRLRPEDSFMSVYPMQTEHHQTPLDYNRRGTSLMEDDEEPIVEDVMMSSEGRIEDLNEGMDFDTMDIDLPPSKNRRERTELKPDFFDPASIMDESVLGVSMF
B2: Cohesin subunit SA-2 (Homo sapiens), Q8N3U4 (parent)
chain: B1 chain
partner: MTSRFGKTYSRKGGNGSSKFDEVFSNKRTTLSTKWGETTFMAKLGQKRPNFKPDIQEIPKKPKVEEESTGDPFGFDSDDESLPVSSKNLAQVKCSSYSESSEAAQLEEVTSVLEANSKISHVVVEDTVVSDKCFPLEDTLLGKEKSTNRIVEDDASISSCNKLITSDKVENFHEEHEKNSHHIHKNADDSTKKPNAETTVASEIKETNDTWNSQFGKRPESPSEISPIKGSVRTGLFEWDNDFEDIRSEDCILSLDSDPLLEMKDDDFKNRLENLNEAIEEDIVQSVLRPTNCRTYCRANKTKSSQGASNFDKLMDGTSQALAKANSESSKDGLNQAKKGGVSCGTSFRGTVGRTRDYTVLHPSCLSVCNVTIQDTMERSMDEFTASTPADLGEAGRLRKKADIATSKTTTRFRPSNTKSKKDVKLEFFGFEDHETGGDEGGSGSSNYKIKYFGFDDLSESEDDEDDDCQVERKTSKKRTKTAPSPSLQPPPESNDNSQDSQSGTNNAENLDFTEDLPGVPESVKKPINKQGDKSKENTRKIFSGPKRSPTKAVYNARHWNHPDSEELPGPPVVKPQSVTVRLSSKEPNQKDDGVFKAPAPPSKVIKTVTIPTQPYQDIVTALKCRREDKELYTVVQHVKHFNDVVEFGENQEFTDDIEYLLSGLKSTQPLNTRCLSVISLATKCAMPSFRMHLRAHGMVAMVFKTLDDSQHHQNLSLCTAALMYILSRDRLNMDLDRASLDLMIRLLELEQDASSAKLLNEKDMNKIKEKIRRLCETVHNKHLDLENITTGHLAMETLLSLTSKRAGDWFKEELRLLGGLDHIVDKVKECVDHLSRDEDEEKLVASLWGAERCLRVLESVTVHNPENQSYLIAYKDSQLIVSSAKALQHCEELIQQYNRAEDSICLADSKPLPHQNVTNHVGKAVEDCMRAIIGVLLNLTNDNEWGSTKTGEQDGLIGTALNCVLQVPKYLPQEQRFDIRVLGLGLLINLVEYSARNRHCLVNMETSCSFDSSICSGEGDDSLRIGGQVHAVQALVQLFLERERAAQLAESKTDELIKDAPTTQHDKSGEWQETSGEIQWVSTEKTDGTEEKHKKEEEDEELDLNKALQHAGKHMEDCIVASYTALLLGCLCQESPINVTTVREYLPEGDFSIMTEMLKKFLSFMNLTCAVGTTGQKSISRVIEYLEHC
B3: Cohesin subunit SA-2 (Homo sapiens), Q8N3U4 (parent)
chain: B1 chain
partner: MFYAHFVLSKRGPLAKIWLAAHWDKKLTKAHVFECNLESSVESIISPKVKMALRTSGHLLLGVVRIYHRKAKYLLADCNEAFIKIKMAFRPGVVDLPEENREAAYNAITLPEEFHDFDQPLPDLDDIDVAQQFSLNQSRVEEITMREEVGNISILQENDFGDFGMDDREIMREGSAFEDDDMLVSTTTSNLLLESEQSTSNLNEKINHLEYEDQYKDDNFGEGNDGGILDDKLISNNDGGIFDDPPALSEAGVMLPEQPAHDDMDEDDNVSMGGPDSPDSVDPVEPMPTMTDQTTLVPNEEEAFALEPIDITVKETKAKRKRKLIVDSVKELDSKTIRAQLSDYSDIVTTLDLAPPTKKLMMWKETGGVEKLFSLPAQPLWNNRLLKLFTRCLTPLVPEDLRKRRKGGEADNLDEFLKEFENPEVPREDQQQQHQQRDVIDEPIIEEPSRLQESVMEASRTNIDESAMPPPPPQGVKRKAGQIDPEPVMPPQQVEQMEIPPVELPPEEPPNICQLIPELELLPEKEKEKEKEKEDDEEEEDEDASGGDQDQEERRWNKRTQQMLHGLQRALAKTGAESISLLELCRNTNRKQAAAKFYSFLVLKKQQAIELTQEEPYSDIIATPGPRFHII

Variants of: B1
Settings: with sgo1_human SGO1, Q5FBB7
Sequence of sgo1_human SGO1, Q5FBB7 (Q5FBB7 whole entry): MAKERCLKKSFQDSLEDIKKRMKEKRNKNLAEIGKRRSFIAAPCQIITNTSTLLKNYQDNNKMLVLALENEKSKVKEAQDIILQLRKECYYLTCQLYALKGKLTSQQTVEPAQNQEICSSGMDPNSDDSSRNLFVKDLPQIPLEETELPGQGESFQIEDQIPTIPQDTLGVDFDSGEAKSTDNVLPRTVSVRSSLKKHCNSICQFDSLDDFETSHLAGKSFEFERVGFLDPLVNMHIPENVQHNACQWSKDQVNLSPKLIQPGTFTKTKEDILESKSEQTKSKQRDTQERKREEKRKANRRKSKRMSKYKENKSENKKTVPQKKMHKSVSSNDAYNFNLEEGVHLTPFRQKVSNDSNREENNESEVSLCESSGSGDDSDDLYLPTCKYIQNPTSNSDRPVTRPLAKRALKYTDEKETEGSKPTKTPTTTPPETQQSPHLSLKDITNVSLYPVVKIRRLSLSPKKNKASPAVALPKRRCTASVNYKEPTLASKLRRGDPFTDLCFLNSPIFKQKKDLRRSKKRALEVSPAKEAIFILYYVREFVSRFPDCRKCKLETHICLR

| Variant | effect of a mutation on the interaction |
| --- | --- |
| K330E | disrupting interaction |
| S327N | decreasing interaction |

Variants of: B2
Settings: with wapl_human WAPL

| Variant | effect of a mutation on the interaction |
| --- | --- |
| S327N | with no effect |
| K330E | decreasing interaction |

Variants of: B3
Settings: with rad21_human RAD21, O60216

| Variant | effect of a mutation on the interaction |
| --- | --- |
| S327N | with no effect |
